{"source": "patent US20110165161A1", "about": "“ANTI-EPCAM ANTIBODIES THAT INDUCE APOPTOSIS OF CANCER CELLS AND METHODS USING SAME” (priority 2009, published 2011)", "key": {"[1]": {"tested_on": "Prostate cancer LNCaP cells", "assay": "Antibody cytotoxicity assay (Annexin V + PI), LNCaP", "assay_type": "cell-based", "details": "1, 3 and 10 μg/ml, overnight", "experimental": "(§1) After a 17-20 hr incubation at 37° C., cells were stained with 0.3 μl of FITC-conjugated Annexin V (Strong Biotech Corp. Cat. No. AVK250) in 50 μl Annexin V binding buffer (Strong Biotech Corp. Cat. No. AVK250) at RT for 20 min. After wash, the cells were then stained with 0.3 μl of propidium iodide in 200 μl Annexin V binding buffer. Annexin V and Propidium Iodide were used as a joint indicator for cell death. The data were acquired with BD FACSCalibur based on an acquisition of 3,000-5,000 cells and analyzed with the Cell Quest software. The combined percentages of the Annexin V+/PI+, Annexin V+/PI− and Annexin V−/PI+populations were considered as dead cells."}, "[2]": {"tested_on": "Lung cancer NCI-H520 cells", "assay": "Antibody cytotoxicity assay (Annexin V + PI), NCI-H520", "assay_type": "cell-based", "details": "1, 3 and 10 μg/ml, overnight", "experimental": "as §1"}, "[3]": {"tested_on": "Gastric cancer NCI-N87 cells", "assay": "Antibody cytotoxicity assay (Annexin V + PI), NCI-N87", "assay_type": "cell-based", "details": "1, 3 and 10 μg/ml, overnight", "experimental": "as §1"}, "[4]": {"tested_on": "Breast cancer T-47D cells", "assay": "Antibody cytotoxicity assay (Annexin V + PI), T-47D", "assay_type": "cell-based", "details": "1, 3 and 10 μg/ml, overnight", "experimental": "as §1"}, "[5]": {"tested_on": "NCI-H358 lung cancer cells", "assay": "Cell death in NCI-H358 lung cancer cells (Annexin V + PI)", "assay_type": "cell-based, human", "details": "mean of 5 experiments; mAb 10 μg/ml; 17 hr", "experimental": "5×10^4 NCI-H358 cells were seeded to each well of a 96-well plate, and then 10 μg/ml of anti-EpCAM or control (9E10) mAbs diluted in the medium was added into the cells. After a 17-hr incubation at 37° C., the cells were stained with 0.3 μl of FITC-conjugated Annexin V (Strong Biotech Corp. Cat. No. AVK250) in 50 μl Annexin V binding buffer (Strong Biotech Corp. Cat. No. AVK250) at RT for 20 min. After wash, the cells were then stained with 0.3 μl of propidium iodide in 200 μl Annexin V binding buffer. Annexin V and Propidium Iodide were used as a joint indicator for measuring cell death. The data were acquired with BD FACSCalibur based on an acquisition of 3,000-5,000 cells and analyzed with the Cell Quest software. The combined percentages of the Annexin V+/PI+, Annexin V+/PI− and Annexin V−/PI+populations were considered as dead cells."}, "[6]": {"tested_on": "Colorectal cancer DLD-1 cells", "assay": "Antibody cytotoxicity assay (Annexin V + PI), DLD-1", "assay_type": "cell-based", "details": "1, 3 and 10 μg/ml, overnight", "experimental": "as §1"}, "[7]": {"tested_on": "Pharynx cancer FaDu cells", "assay": "Antibody cytotoxicity assay (Annexin V + PI), FaDu", "assay_type": "cell-based", "details": "1, 3 and 10 μg/ml, overnight", "experimental": "as §1"}, "[8]": {"tested_on": "Ovarian cancer NIH:OVCAR-3 cells", "assay": "Antibody cytotoxicity assay (Annexin V + PI), NIH:OVCAR-3", "assay_type": "cell-based", "details": "1, 3 and 10 μg/ml, overnight", "experimental": "as §1"}, "CHO parental cells": {"tested_on": "CHO parental cells", "assay": "FACS binding of anti-EpCAM antibodies to CHO parental cells", "design": "species or system Chinese hamster", "details": "antibody 0.1 μg/ml; HPS at 300x dilution", "experimental": "1×10^5 CHO/EpCAM or CHO parental cells were seeded in each well of a v-bottomed 96-well plate and incubated with purified anti-EpCAM antibodies or mouse IgG control antibody 9E10 at concentration of 0.1 μg/ml. A 300× dilution of human cell hyper-immune serum (HPS 300×) was used as binding positive control for both cell lines here. After 1 hr incubation at 4° C., cells were washed twice with 200 μl FACS buffer (1×PBS containing 1% FBS), stained with 100 μl of 1 μg/ml goat-anti-mouse IgG-PE (Southern Biotech, Cat. No. 1032-09) in FACS buffer and then incubated at 4° C. for 30 min. Cells were washed thrice with FACS buffer and analyzed by flow cytometry (BD LSR, BD Life Sciences)."}}, "data": [{"molecule": "2D11: murine anti-human EpCAM monoclonal antibody (IgG1, K), hybridoma m322-2D11.19; VH SEQ ID NO:15, VL SEQ ID NO:17 (antibody, listed as Mus musculus, V domains shown) VH: QIQLVQSGPELKKPGETVKISCKASGYTFTNYGMNWVKQAPGKGLKWMGWINTNTGEATYVEEFKGRVVFSLETSASTAYLQINNLKNEDTATYFCARIGYVWYFDVWGAGTTVTVSS VL: DIVMSQSPSSLAVSAGEKVTMSCKSSQSLFSSRTRKNYLAWYQQKPGQSPKLLIYWASTRESGVPDRFTGSGSGTDFTLTINSVQAEDLAVYYCKHSNNLFTFGSGTKLEIKR", "values": [{"measurement": "Induction of cell death (in words)", "setting": "[1]", "value": "substantial cell death"}, {"measurement": "Induction of cell death (in words)", "setting": "[2]", "value": "substantial cell death"}, {"measurement": "Induction of cell death (in words)", "setting": "[3]", "value": "substantial cell death"}, {"measurement": "Induction of cell death (in words)", "setting": "[4]", "value": "substantial cell death"}, {"measurement": "% of Annexin V + PI staining (untreated background subtracted), Mean ± SEM", "setting": "[5]", "value": "39.4 ± 3.0", "unit": "%"}, {"measurement": "Induction of cell death (in words)", "setting": "[6]", "value": "substantial cell death"}, {"measurement": "Induction of cell death (in words)", "setting": "[7]", "value": "substantial cell death"}, {"measurement": "Induction of cell death (in words)", "setting": "[8]", "value": "substantial cell death"}, {"measurement": "Binding (FACS, Mean fluorescence intensity (MFI)) CHO", "setting": "CHO parental cells", "value": 6}]}, {"molecule": "6D11: murine anti-human EpCAM monoclonal antibody (IgG1, K), hybridoma m338-6D11.8; VH SEQ ID NO:23, VL SEQ ID NO:25 (antibody, listed as Mus musculus, V domains shown) VH: EVQLVESGGDLVKPGGSLKLSCAASGFAFDSYGMSWIRQTPGTRLEWVATISSGGYYTYYEDNVKGRFIISRDNAKNTLDLQMSGLKSEDAATYYCARRGNYDVDYYAMDYWGQGTSVIVSS VL: DVVLTQIPLSLPVSLGDQASISCRSSQSLEHSNGNTYLHWYLQKPGQSPKLLIYKVSNRFSGVPDRFSGSGSGTDFTLKISRVEAEDLGVYFCSQSTHVPPWTFGGGTKLEFKR", "values": [{"measurement": "Induction of cell death (in words)", "setting": "[1]", "value": "substantial cell death"}, {"measurement": "Induction of cell death (in words)", "setting": "[2]", "value": "substantial cell death"}, {"measurement": "Induction of cell death (in words)", "setting": "[3]", "value": "substantial cell death"}, {"measurement": "Induction of cell death (in words)", "setting": "[4]", "value": "substantial cell death"}, {"measurement": "% of Annexin V + PI staining (untreated background subtracted), Mean ± SEM", "setting": "[5]", "value": "42.4 ± 1.0", "unit": "%"}, {"measurement": "Induction of cell death (in words)", "setting": "[6]", "value": "substantial cell death"}, {"measurement": "Induction of cell death (in words)", "setting": "[7]", "value": "substantial cell death"}, {"measurement": "Induction of cell death (in words)", "setting": "[8]", "value": "substantial cell death"}, {"measurement": "Binding (FACS, Mean fluorescence intensity (MFI)) CHO", "setting": "CHO parental cells", "value": 5}]}, {"molecule": "4D2: murine anti-human EpCAM monoclonal antibody (IgG1, K), hybridoma m338-4D2.20; VH SEQ ID NO:19, VL SEQ ID NO:21 (antibody, listed as Mus musculus, V domains shown) VH: EVQLVESGGDLVKPGGSLKLSCAASGFAFDSYGMSWVRQTPGKRLEWVATISSGGYYTYYQDSVKGRFTTSRDNAKNTLDLQMSSLKSEDSAIYYCARRGNYDVDYYAMDYWGQGTSVTVSS VL: DVVMTQTPLSLPVSLGDQASISCRSSQSLVHSNGNTYLHWYLQKPGQSPKLLIYKVSNRFSGVPDRFSGSGSGTDFTLRISRVEAEDLGVYFCSQSTHVPPWTFGGGTKLEIKR", "values": [{"measurement": "Induction of cell death (in words)", "setting": "[1]", "value": "substantial cell death"}, {"measurement": "Induction of cell death (in words)", "setting": "[2]", "value": "substantial cell death"}, {"measurement": "Induction of cell death (in words)", "setting": "[3]", "value": "substantial cell death"}, {"measurement": "Induction of cell death (in words)", "setting": "[4]", "value": "substantial cell death"}, {"measurement": "% of Annexin V + PI staining (untreated background subtracted), Mean ± SEM", "setting": "[5]", "value": "43.6 ± 0.9", "unit": "%"}, {"measurement": "Induction of cell death (in words)", "setting": "[6]", "value": "substantial cell death"}, {"measurement": "Induction of cell death (in words)", "setting": "[7]", "value": "substantial cell death"}, {"measurement": "Induction of cell death (in words)", "setting": "[8]", "value": "substantial cell death"}, {"measurement": "Binding (FACS, Mean fluorescence intensity (MFI)) CHO", "setting": "CHO parental cells", "value": 5}]}]}
